IntAct's records for PubMed 33986552

B1: Mannose-1-phosphate guanylyltransferase regulatory subunit alpha (Homo sapiens), Q96IJ6-1 (parent)
chain: MLKAVILIGGPQKGTRFRPLSFEVPKPLFPVAGVPMIQHHIEACAQVPGMQEILLIGFYQPDEPLTQFLEAAQQEFNLPVRYLQEFAPLGTGGGLYHFRDQILAGSPEAFFVLNADVCSDFPLSAMLEAHRRQRHPFLLLGTTANRTQSLNYGCIVENPQTHEVLHYVEKPSTFISDIINCGIYLFSPEALKPLRDVFQRNQQDGQLEDSPGLWPGAGTIRLEQDVFSALAGQGQIYVHLTDGIWSQIKSAGSALYASRLYLSRYQDTHPERLAKHTPGGPWIRGNVYIHPTAKVAPSAVLGPNVSIGKGVTVGEGVRLRESIVLHGATLQEHTCVLHSIVGWGSTVGRWARVEGTPSDPNPNDPRARMDSESLFKDGKLLPAITILGCRVRIPAEVLILNSIVLPHKELSRSFTNQIIL

Variants of: B1
Conditions: with GMPPB

Variant	effect of a mutation on the interaction
MLKAVILIGGPQKGTRFRPLSFEVPKPLFPVAGVPMIQHHIEACAQVPGMQEILLIGFYQPDEPLTQFLEAAQQEFNLPVRYLQEFAPLGTGGGLYHFRDQILAGSPEAFFVLNADVCSDFPLSAMLEAHRRQRHPFLLLGTTANRTQSLNYGCIVENPQTHEVLHYVEKPSTFISDIINCGIYLFSPEALKPLRDVFQRNQQDGQLEDSPGLWPGAGTIRLEQDVFSALAGQGQIYVHLTDGIWSQIKSAGSALYASRLYLSRYQDTHPERLAKHTPGGPWIRGNVYIHPTAKVAPSAVLGPNVSIGKGVTVGEGVELRESIVLHGATLQEHTCVLHSIVGWGSTVGRWARVEGTPSDPNPNDPRARMDSESLFKDGKLLPAITILGCRVRIPAEVLILNSIVLPHKELSRSFTNQIIL [R318E]	disrupting interaction
MLKAVILIGGPQKGTRFRPLSFEVPKPLFPVAGVPMIQHHIEACAQVPGMQEILLIGFYQPDEPLTQFLEAAQQEFNLPVRYLQEFAPLGTGGGLYHFRDQILAGSPEAFFVLNADVCSDFPLSAMLEAHRRQRHPFLLLGTTANRTQSLNYGCIVENPQTHEVLHYVEKPSTFISDIINCGIYLFSPEALKPLRDVFQRNQQDGQLEDSPGLWPGAGTIRLEQDVFSALAGQGQIYVHLTDGIWSQIKSAGSALYASRLYLSRYQDTHPERLAKHTPGGPWIRGNVYIHPTAKVAPSAVLGPNVSIGKGVTVGEGVRLRESIVLHGATLQEHTCVLHSIVGWGSTVGRAAAVEGTPSDPNPNDPRARMDSESLFKDGKLLPAITILGCRVRIPAEVLILNSIVLPHKELSRSFTNQIIL [W350A;R352A]	disrupting interaction
MLKAVILIGGPQKGTRFRPLSFEVPKPLFPVAGVPMIQHHIEACAQVPGMQEILLIGFYQPDEPLTQFLEAAQQEFNLPVRYLQEFAPLGTGGGLYHFRDQILAGSPEAFFVLNADVCSDFPLSAMLEAHRRQRHPFLLLGTTANRTQSLNYGCIVENPQTHEVLHYVEKPSTFISDIINCGIYLFSPEALKPLRDVFQRNQQDGQLEDSPGLWPGAGTIRLEQDVFSALAGQGQIYVHLTDGIWSQIKSAGSALYASRLYLSRYQDTHPERLAKHTPGGPWIRGNVYIHPTAKVAPSAVLGPNVSIGKGVTVGEGVRLRESIVLHGATLQEHTCVLHSIVGWGSTVGRWARVEGTPSDPNPNDPRARMDSESLFKDGKLLPAITILGCRVRIPARVLILNSIVLPHKELSRSFTNQIIL [E396R]	with no effect
MLKAVILIGGPQKGTRFRPLSFEVPKPLFPVAGVPMIQHHIEACAQVPGMQEILLIGFYQPDEPLTQFLEAAQQEFNLPVRYLQKFAPLGTGGGLYHFRDQILAGSPEAFFVLNADVCSDFPLSAMLEAHRRQRHPFLLLGTTANRTQSLNYGCIVENPQTHEVLHYVEKPSTFISDIINCGIYLFSPEALKPLRDVFQRNQQDGQLEDSPGLWPGAGTIRLEQDVFSALAGQGQIYVHLTDGIWSAIKSAGSALYASRLYLSRYQDTHPERLAKHTPGGPWIRGNVYIHPTAKVAPSAVLGPNVSIGKGVTVGEGVRLRESIVLHGATLQEHTCVLHSIVGWGSTVGRWARVEGTPSDPNPNDPRARMDSESLFKDGKLLPAITILGCRVRIPAEVLILNSIVLPHKELSRSFTNQIIL [E85K;Q247A]	with no effect
